In the test the target is T1, full-length ApoE4 (human, UniProt P02649 19-317).
T1 construct: In cell lysate; P02649 is printed for the E3 allele (residues 19-317); also called ApoE4(1-299)
T1 chain: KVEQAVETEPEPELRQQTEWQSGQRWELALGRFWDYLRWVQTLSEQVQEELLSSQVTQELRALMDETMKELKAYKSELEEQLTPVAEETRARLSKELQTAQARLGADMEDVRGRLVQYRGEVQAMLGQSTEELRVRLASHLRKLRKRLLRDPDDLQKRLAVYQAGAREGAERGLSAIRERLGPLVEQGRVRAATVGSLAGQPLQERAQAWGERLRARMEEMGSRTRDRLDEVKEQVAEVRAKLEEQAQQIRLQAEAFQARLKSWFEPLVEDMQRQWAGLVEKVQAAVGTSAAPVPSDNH
Description: immunoprecipitation from cell lysate, western blot with 1F9. The method, then:
Cell Lysates preparation: Media was aspirated. Cells were treated for desired time by adding fresh media containing regulator. Media was then removed and cells rinsed with ice-cold PBS to harvest cells under nondenaturing conditions. PBS was removed, and 0.5 ml ice-cold 1× cell lysis buffer was added to each plate (10 cm). The plates were incubated on ice for 5 minutes. Cells were scraped off the plates and transferred to microcentrifuge tubes. The cells were kept on ice, and sonicated on ice three times for 5 seconds each. The samples were then microcentrifuged for 10 minutes at 14,000×g, 4° C., and the supernatant was transferred to a new tube. When necessary, lysate was stored at −80° C.
The membrane was then incubated with primary antibody anti-ApoE4 antibody 1F9 (MBL International Corp., Cat# M067-3) in 10 ml primary antibody dilution buffer with gentle agitation overnight at 4° C. […]
Lysates of full-length ApoE3, full-length ApoE4, ApoE3(1-272), and ApoE4(1-272) lysates were detected using Western blot with 1 μg/ml 1F9 (Medical and Biological Laboratories) (Lanes 1-4; FIG. 3). […] The m15G8 immunoprecipitation were then detected using Western blot with 1 μg/ml 1F9 (Lanes 5-8; FIG. 3). […]
(In general: Immunoblotting shows a protein as a band on a membrane.)

Results on one molecule are retold here after patent publication US20120204275A1 (NEOTOPE BIOSCIENCES, published 2012).

B1: mouse monoclonal antibody 15G8 (antibody, V domains shown)
VH: EVKLVESGGGLVKPGGSLKLSCAASGFTFSFYAMSWVRQTPEKRLEWVASLSRGGSTYYPDSVKGRFTISRDNARNTLYLQMSSLRSEDTAMFYCAREGATALYAMDYWGQGTSVTVSS
VL: DVLMTQTPLSLPVSLGDQASISCRSSQSIVHSNGNTYLQWYLQKPGQSPKLLIYKVSNRFSGVPDRFSGSGSGTDFTLKISRVEAEDLGIYYCFQGSHVPWTFGGGTKLEIK
notes: Same variable regions as 12C12 and 15E10; also called m15G8; mouse 15G8
On to B1, for which the binding result is given as “no binding”.
